For 1 molecule, Kd results are on record in PMC3884217.

The assay has as its target Nud1 pT78 peptide (budding yeast).

B1: Mob1 (construct not stated for this experiment) (natural protein)
chain: MSFLQNFHISPGQTIRSTRGFKWNTANAANNAGSVSPTKATPHNNTINGNNNNANTINNRADFTNNPVNGYNESDHGRMSPVLTTPKRHAPPPEQLQNVTDFNYTPSHQKPFLQPQAGTTVTTHQDIKQIVEMTLGSEGVLNQAVKLPRGEDENEWLAVHCVDFYNQINMLYGSITEFCSPQTCPRMIATNEYEYLWAFQKGQPPVSVSAPKYVECLMRWCQDQFDDESLFPSKVTGTFPEGFIQRVIQPILRRLFRVYAHIYCHHFNEILELNLQTVLNTSFRHFCLFAQEFELLRPADFGPLLELVMELRDR
As a reminder, the Kd is the concentration at which binding is half-saturated. B1 showed a Kd of 2400 nM.
